# Data taken from the Human Domainome abundance scans (Beltran et al. 2025).
# ± gives the uncertainty stated by the source.
# B1: E3 ubiquitin-protein ligase TRIM36, residues 208 to 252; numbered along this chain, Q9NQ86 (parent)
# chain: KILMCPEHETERINMYCELCRRPVCHLCKLGGNHANHRVTTMSSA
# Variants of: B1
# Assay: abundance fitness (aPCA) (normalised: wild type 0, dead -1); higher = more abundant; growth selection in yeast, the domain comes from the species named
# Conditions: Homo sapiens
row,Variant,abundance fitness
1,P23Y,-0.069 ± 0.098
2,L30T,0.096 ± 0.058
3,N36L,-0.097 ± 0.049
4,P23M,-0.189 ± 0.092
5,N33E,-0.003 ± 0.072
6,I13G,0.145 ± 0.12
7,C17G,-0.733 ± 0.088
8,R22N,-0.291 ± 0.16
9,R38W,0 ± 0.098
10,E11Q,-0.079 ± 0.13
11,E18Y,-0.416 ± 0.12
12,H8A,-0.951 ± 0.065
13,I2E,-0.042 ± 0.049
14,H34F,-0.614 ± 0.19
15,K1T,-0.157 ± 0.065
16,L27T,0.095 ± 0.081
17,I2N,0.011 ± 0.067
18,L27D,-0.202 ± 0.084
19,E9R,-0.072 ± 0.044
20,H37Y,-0.36 ± 0.12
21,C28V,-0.525 ± 0.062

row,Variant,abundance fitness
1,H8C,-0.611 ± 0.076
2,R12E,-0.016 ± 0.098
3,E18W,-0.236 ± 0.059
4,L3A,-0.001 ± 0.048
5,L3P,-0.128 ± 0.058
6,E7R,-0.104 ± 0.045
7,N14C,0.106 ± 0.1
8,C28S,-0.445 ± 0.059
9,K29A,0.012 ± 0.047
10,L27R,0.015 ± 0.044
11,T41I,-0.158 ± 0.078
12,P6A,-0.072 ± 0.062
13,V39F,-0.103 ± 0.099
14,T41V,-0.084 ± 0.046
15,N14L,0.036 ± 0.083
16,E7N,-0.169 ± 0.099
17,C5Y,-1 ± 0.1
18,M4Y,0.031 ± 0.055
19,H8K,-0.638 ± 0.065
20,L3V,-0.037 ± 0.05
21,M4D,-0.189 ± 0.058

row,Variant,abundance fitness
1,I2C,-0.345 ± 0.11
2,R22P,-0.344 ± 0.077
3,S43F,-0.415 ± 0.18
4,E18A,-0.145 ± 0.055
5,M4P,-0.288 ± 0.056
6,L30P,0.005 ± 0.056
7,T10K,0.041 ± 0.057
8,C20F,-1.37 ± 0.14
9,C5N,-0.84 ± 0.088
10,T41Q,-0.11 ± 0.086
11,T41F,-0.189 ± 0.084
12,Y16Q,-0.306 ± 0.29
13,T10A,-0.12 ± 0.053
14,T10W,-0.273 ± 0.06
15,T40S,-0.025 ± 0.051
16,H37K,-0.176 ± 0.068
17,K29W,-0.12 ± 0.07
18,A35R,-0.129 ± 0.048
19,T40P,0.003 ± 0.053
20,H26P,0.021 ± 0.091
21,M42N,-0.059 ± 0.079

row,Variant,abundance fitness
1,G32P,-0.015 ± 0.054
2,H34S,-0.318 ± 0.054
3,Y16T,0.284 ± 0.15
4,G31C,-0.094 ± 0.069
5,S44W,-0.274 ± 0.073
6,T10Q,0.021 ± 0.067
7,V24A,-0.153 ± 0.056
8,I2G,-0.115 ± 0.048
9,E11L,-0.196 ± 0.11
10,S44R,-0.1 ± 0.05
11,L3H,-0.131 ± 0.078
12,K1Y,-0.497 ± 0.12
13,N36I,-0.225 ± 0.066
14,A45T,-0.143 ± 0.084
15,E7Q,-0.041 ± 0.058
16,Y16L,-0.053 ± 0.076
17,I13L,0.032 ± 0.1
18,N14V,0.034 ± 0.16
19,T10C,-0.06 ± 0.088
20,A35S,-0.052 ± 0.054
21,N33W,-0.178 ± 0.062
